The assay has as its target Avi-tagged HSP90β (full-length human HSP90β, residues 1–724) (human) (UniProt P08238).

The text below walks through data of paper PMC8857470, “Molecular insights into the maturation of phosphodiesterase 6 by the specialized chaperone complex of HSP90 with AIPL1” (The Journal of Biological Chemistry, 2022).

Substitutions are numbered along the chain they refer to. Numbers in names are those of the source.

Avi-tagged HSP90β (full-length human HSP90β, residues 1–724) (human), sequence (P08238 whole entry, the tested form may be a part): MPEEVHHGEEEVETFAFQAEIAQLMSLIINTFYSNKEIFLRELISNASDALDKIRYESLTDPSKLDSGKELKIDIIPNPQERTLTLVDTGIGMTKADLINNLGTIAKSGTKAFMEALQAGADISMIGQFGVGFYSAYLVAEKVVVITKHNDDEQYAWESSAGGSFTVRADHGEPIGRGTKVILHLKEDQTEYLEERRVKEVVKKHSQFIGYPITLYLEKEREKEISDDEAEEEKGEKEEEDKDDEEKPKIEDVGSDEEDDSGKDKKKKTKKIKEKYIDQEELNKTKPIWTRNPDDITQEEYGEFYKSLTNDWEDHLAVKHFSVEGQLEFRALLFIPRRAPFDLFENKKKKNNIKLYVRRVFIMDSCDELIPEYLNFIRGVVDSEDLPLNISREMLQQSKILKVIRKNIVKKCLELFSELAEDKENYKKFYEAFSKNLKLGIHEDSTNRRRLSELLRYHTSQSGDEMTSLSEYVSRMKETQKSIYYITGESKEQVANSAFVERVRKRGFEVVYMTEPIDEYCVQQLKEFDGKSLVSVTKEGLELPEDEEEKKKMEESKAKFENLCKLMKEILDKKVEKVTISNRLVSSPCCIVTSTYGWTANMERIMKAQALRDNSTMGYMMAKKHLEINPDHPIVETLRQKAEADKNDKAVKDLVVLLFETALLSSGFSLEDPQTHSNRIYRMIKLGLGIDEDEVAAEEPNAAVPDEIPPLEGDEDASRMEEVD

B1: AIPL1-K265A (natural protein)
chain: MDVSLLLNVEGVKKTILHGGTGELPSFITGSRVTFHFRTMKCDDERTVIDDSKQVGQPMSIIIGNMFKLEVWETLLTSMRLGEVAEFWCDTIHTGVYPMLSRSLRQVAEGKDPTSWHVHTCGLANMFAYHTLGYEDLDELQKEPQPLVFLIELLQVEAPNEYQRETWNLNNEERMQAVPLLHGEGNRLYKLGRYDQAATKYQEAIVCLRNLQTKEKPWEVEWLKLEKMINTLILNYCQCLLKKEEYYEVLEHTSDILRHHPGIVAAYYMRARAHAEVWNAEEAKADLEKVLELEPSMRKAVLRELRLLESRLADKQEEERQRCRSMLG
B1 registered a cGMP hydrolysis (PDE6 activity) in lysates of HEK293T cells cotransfected with PDE6C, Pγ and the AIPL1 mutant (nmol•min^−1• mg^−1) of 8.8.

B2: AIPL1-K265W (natural protein)
chain: B1 chain with A265W
Consider B2, for which the cGMP hydrolysis (PDE6 activity) in lysates of HEK293T cells cotransfected with PDE6C, Pγ and the AIPL1 mutant (nmol•min^−1• mg^−1) is 3.
